Data: patent publication US8114641B2, “Methylbutanol as an advanced biofuel” (Synthetic Genomics, Inc., priority 2007, dated 2012)
Where two headings read alike, the source gives them in different places.

Experiments:
[1] = Physical properties of alcohol fuels and gasoline; type: physicochemical
[2] = Fuel properties of the neat fuel
[3] = based on literature review; cited from earlier work
[4] = 10% blend in gasoline
[5] = 10% blend in gasoline; value based on literature review; cited from earlier work
[6] = Keto acid decarboxylase activity on pyruvate, crude extracts; type: biochemical; details: crude extract, S. cerevisiae PDC1 deletion host; sigmoidal curves
Procedure: (§1) The Lactococcus lactis KdcA and S. cerevisiae and P. stipitis PDCs were cloned into yeast expression vector p415 under the control of TEF promoter. The host strain was a PDC1 deletion strain. Crude extracts were prepared for enzymatic assays by incubating cell pellet with CelLytic (Sigma), followed by bead beating. The decarboxylase reaction was performed in 100 mM Citrate Phosphate buffer with 1 mM Thiamine diphosphate, 1 mM MgCl2 and 50 μM to 20 mM aldehyde. The assay was coupled to an alcohol dehydrogenase which enabled continuous monitoring of NADH or NADPH oxidation at 340 nm.
Pyruvate is the target for multiple enzymes and a decarboxylation of the compound can lead to the production of acetaldehyde and subsequently ethanol. To prevent decarboxylation of pyruvate and increase 2-MBO production, a keto acid decarboxylase with a very high Km for pyruvate is ideal. […] The kinetic curves obtained with pyruvate as substrate were sigmoidal. This could be due to the fact that there are multiple enzymes in the crude extract with different Km for pyruvate. The final curve is therefore the superposition of individual curves. Absolute Km values […]. (FIG. 26.)

[7] = Keto acid decarboxylase activity on 2-keto butyrate, NADH dependent coupled assay with yeast ADH1; type: biochemical; details: for Vmax 2 keto butyrate / Km: crude extract; for Vmax 2 keto butyrate: S. cerevisiae PDC1 deletion host; for Km: enzyme expressed from p415 TEF in S. cerevisiae PDC1 deletion strain
Procedure: as §1
NADH dependent coupled assays with yeast ADH1 were carried out to determine the decarboxylase activity of yeast and heterologous enzymes on the substrate 2 keto butyrate (2KB). 2KB is an intermediate in the production of 2-methylbutanol. A high decarboxylase activity on 2KB can lead to its conversion to propanal and reduce the yield of 2-MBO. […] (See FIG. 25 a-g.) The enzyme with the lowest Km for 2-ketobutyrate is yeast PDC1 and therefore the corresponding gene needs to be deleted in the 2-MBO production strain (data not shown).

[8] = Keto acid decarboxylase activity on 2-keto-3-methylvalerate, PDC/KDC-ADH6 coupled assay with crude extracts; type: biochemical; details: for Vmax 2 keto 3 methyl valerate / Km: crude extract; for Vmax 2 keto 3 methyl valerate: S. cerevisiae PDC1 deletion host; for Km: enzyme expressed from p415 TEF in S. cerevisiae PDC1 deletion strain, read-out: Km 2 keto 3 methyl valerate
Procedure: as §1
The substrate specificity of the crude extract overexpressing different PDC/Kdcs was tested with a broad range of aldehydes. This included acetaldehyde, butyraldehyde and 2-methylbutyraldehyde. The concentration of the aldehydes was varied from 50 μM to 20 mM to determine the Km and Vmax values.
2-keto-3-methylvalerate (2K3MV) was tested for decarboxylation and subsequent reduction using PDC/KDC-ADH6 coupled assays.

[9] = Endpoint assay for acetolactate synthase activity with pyruvate as substrate; type: biochemical; details: colorimetric detection at 546 nm, expressed in yeast
Procedure: FIG. 23 (a-d.) Endpoint assays for acetolactate synthase activity were carried out using pyruvate as substrate. The resulting acetolactate was converted to […] under acidic conditions. Acetone was reacted with α-naphtha for colorimetric detection at 546 nm. […] The reaction was only moderately subject to feedback inhibition by leucine, isoleucine and valine (b, c and d) which could be due to longer reaction times.

[10] = Reductase activity of yeast ADH1 on various aldehydes; type: biochemical
Procedure: The ideal ADH for 2-MBO production should be able to reduce branched aldehydes. Therefore, the enzymes ADH1, ADH6, and ADH7 were overexpressed in yeast and were tested for their reductase activity on various aldehydes.

For CCO [Ethanol, reference compound], the “Boiling Point, max” value [1] was 79 °C, the “Flash Point, min” value [1] was 13 °C and the “Freezing Point, max” value [1] was −114 °C. For the same molecule, the “Energy Content” value [2] was 84,519 BTU/gal, the “Reid Vapor Pressure” value [2] was 2.3 psi and the “Pump Octane (R + M)/2” value ([2]; extrapolated from tests on blended fuels (blending octanes)) was 130.9. For the same molecule, the “Fuel Solubility in Water” value [3] was 100 wt %, the “Water Solubility in Fuel” value [3] was 100 wt % and the “Energy Content” value [4] was 111,052 BTU/gal. For the same molecule, the “Pump Octane (R + M)/2” value ([4]; RBOB with Pump Octane 80.85 and RVP 7.37) was 85.9 and the “Reid Vapor Pressure” value [5] was ~8.2^A psi.

B1: P. stipitis PDC 3/6: Pyruvate decarboxylase (PDC6) (PDC3) [Pichia stipitis], SEQ ID NO: 53 (protein, listed as Pichia stipitis)
chain: MTPVQETIRLPGTSSPTVPENVTLGEYLFLRISQANPKLRSIFGIPGDFNVDLLEHLYSPVVAGRDIKFIGLCNELNGAYTADGYSRAIGGLSTFISTFGVGELSAINGIAGSFAEFSPVLHIVGTTSLPQRDHAINGSDVRNHHHLIQNKNPLCQPNHDVYKKMIEPISVIQESLDSDLQRNMEKIDRVLVKILQESRPGYLFIPCDITNLIVPSYRLYETPLPLEIQLTTSGVEVLEDVVDAILFRLYKSKNPSLLSDCLTTRFNLQDKLNTLVAKLPSNFVKLFSTNMARNIDESLSNFVGLYFGIGSSSKEVSRQLERNTDFLINLGYFNAETTTAGYSNDFSNIEEYIEINPDYIKVNEHIINIKNPESGKRLFSMGQLLDALLFKLDLNKIENINNNNISYKFFPPTLYEQDNNTDYIPQTKLVDYLNENLQPGDLLVMDTMSFCFALPDIMLPQGVQLLTQNYYGSIGYALPSTFGATMAVNDLGSDRRIILIEGDGAAQMTIQELSSFLKYKEFLPNMPKIFLINNDGYTVERMIKGPTRSYNDINGEWSWTQLLGVFGDKEQKYHSTALLRNVNEFNKYFEFQRQTDNSKLEFIELIAGKYDCPLRFSEMFCKK
For B1, the “Vmax Pyruvate” value [6] was 12624 µM/min/mg, the “Vmax 2 keto butyrate” value [7] was 5389 µM/min/mg and the Km [7] was 6.51 mM. The “Vmax on 2 keto butyrate, fold higher than KDCA” value ([7]; relative to L. lactis KdcA) was “about 3.4 fold”, the “Vmax 2 keto 3 methyl valerate” value [8] was 3359. uM/min/mg and the Km ([8]; listed as P. stipitis PDC3/6) was 0.84 mM. The Km [8] was 0.84 mM and the “Vmax on 2-keto-3-methylvalerate, fold higher than KdcA” value ([8]; relative to L. lactis KdcA) was 3.4 fold.

B2: E. coli ilvB: Acetolactate synthase I, large subunit [Escherichia coli], SEQ ID NO: 37 (protein, listed as Escherichia coli)
chain: MASSGTTSTRKRFTGAEFIVHFLEQQGIKIVTGIPGGSILPVYDALSQSTQIRHILARHEQGAGFIAQGMARTDGKPAVCMACSGPGATNLVTAIADARLDSIPLICITGQVPASMIGTDAFQEVDTYGISIPITKHNYLVRHIEELPQVMSDAFRIAQSGRPGPVWIDIPKDVQTAVFEIETQPAMAEKAAAPAFSEESIRDAAAMINAAKRPVLYLGGGVINAPARVRELAEKAQLPTTMTLMALGMLPKAHPLSLGMLGMHGVRSTNYILQEADLLIVLGARFDDRAIGKTEQFCPNAKIIHVDIDRAELGKIKQPHVAIQADVDDVLAQLIPLVEAQPRAEWHQLVADLQREFPCPIPKACDPLSHYGLINAVAACVDDNAIITTDVGQHQMWTAQAYPLNRPRQWLTSGGLGTMGFGLPAAIGAALANPDRKVLCFSGDGSLMMNIQEMATASENQLDVKIILMNNEALGLVHQQQSLFYEQGVFAATYPGKINFMQIAAGFGLETCDLNNEADPQASLQEIINRPGPALIHVRIDAEEKVYPMVPPGAANTEMVGE
With B2 the “acetolactate synthase activity on pyruvate” value [9] was “highest activity”.

B3: L. lactis KDCA: Branched-chain alpha-ketoacid decarboxylase [Lactococcus lactis], SEQ ID NO: 61 (protein, listed as Lactococcus lactis)
chain: MYTVGDYLLDRLHELGIEEIFGVPGDYNLQFLDQIISREDMKWIGNANELNASYMADGYARTKKAAAFLTTFGVGELSAINGLAGSYAENLPVVEIVGSPTSKVQNDGKFVHHTLADGDFKHFMKMHEPVTAARTLLTAENATYEIDRVLSQLLKERKPVYINLPVDVAAAKAEKPALSLEKESSTTNTTEQVILSKIEESLKNAQKPVVIAGHEVISFGLEKTVTQFVSETKLPITTLNFGKSAVDESLPSFLGIYNGKLSEISLKNFVESADFILMLGVKLTDSSTGAFTHHLDENKMISLNIDEGIIFNKVVEDFDFRAVVSSLSELKGIEYEGQYIDKQYEEFIPSSAPLSQDRLWQAVESLTQSNETIVAEQGTSFFGASTIFLKSNSRFIGQPLWGSIGYTFPAALGSQIADKESRHLLFIGDGSLQLTVQELGLSIREKLNPICFIINNDGYTVEREIHGPTQSYNDIPMWNYSKLPETFGATEDRVVSKIVRTENEFVSVMKEAQADVNRMYWIELVLEKEDAPKLLKKMGKLFAEQNK
In the case of B3, the “Vmax Pyruvate” value [6] is reported as 10069 µM/min/mg, the “Vmax 2 keto butyrate” value [7] is reported as 2053.0 µM/min/mg and the Km [7] is reported as 6.05 mM. For the same molecule, the “Vmax 2 keto 3 methyl valerate” value [8] was 987.3 µM/min/mg, the Km ([8]; listed as KDCA) was 3.7 mM and the Km [8] was 3.75 mM.

B4: E. coli ilvG: Acetolactate synthase II, large subunit [Escherichia coli], SEQ ID NO: 39 (protein, listed as Escherichia coli)
chain: MNGAQWVVHALRAQGVNTVFGYPGGAIMPVYDALYDGGVEHLLCRHEQGAAMAAIGYARATGKTGVCIATSGPGATNLITGLADALLDSIPVVAITGQVSAPFIGTDAFQEVDILGLSLACTKHSFLVQSLEELPRIMAEAFDVASSGRPGPVLVDIPKDIQLASGDLEPWFTTVENEVTFPHAEVEQARQMLAKAQKPMLYVGGGVGMAQAVSALREFLAATKMPATCTLKGLGAVEADYPYYLGMLGMHGTKAANFAVQECDLLIAVGARFDDRVTGKLNTFAPHASVIHMDIDPAEMNKLRQAHVALQGDLNALLPALQQPLNINDWQQYCAQLRDEHTWRYDHPGDAIYAPLLLKQLSDRKPADCVVTTDVGQHQMWAAQHIAHTRPENFITSSGLGTMGFGLPAAVGAQVARPNDTVVCISGDGSFMMNVQELGTVKRKQLPLKIVLLDNQRLGMVRQWQQLFFQERYSETTLTDNPDFLMLASAFGIPGQHITRKDQVEAALDTMLNSDGPYLLHVSIDELENVWPLVPPGASNSEMLEKLS
For B4, the “acetolactate synthase activity on pyruvate” value [9] was “minimum activity”.

B5: ADH1: Saccharomyces cerevisiae alcohol dehydrogenase ADH1, SEQ ID NO: 67 (protein, listed as Saccharomyces cerevisiae)
chain: MSIPETQKGVIFYESHGKLEYKDIPVPKPKANELLINVKYSGVCHTDLHAWHGDWPLPVKLPLVGGHEGAGVVVGMGENVKGWKIGDYAGIKWLNGSCMACEYCELGNESNCPHADLSGYTHDGSFQQYATADAVQAAHIPQGTDLAQVAPILCAGITVYKALKSANLMAGHWVAISGAAGGLGSLAVQYAKAMGYRVLGIDGGEGKEELFRSIGGEVFIDFTKEKDIVGAVLKATDGGAHGVINVSVSEAAIEASTRYVRANGTTVLVGMPAGAKCCSDVFNQVVKSISIVGSYVGNRADTREALDFFARGLVKSPIKVVGLSTLPEIYEKMEKGQIVGRYVVDTSK
In the case of B5, the “fold less active on 2-methyl butaraldehyde than acetaldehyde” value [10] is reported as ~5000 fold.
